The labels stand for the following.
B1: CPEB3 Ribozyme (parent)
chain: GGGGGCCACAGCAGAAGCGUUCACGUCGCGGCCCCUGUCAGAUUCUGGUGAAUCUGCGAAUUCUGCUGU

The variants in this data set derive from B1. In words: self-cleavage, relative activity (ratio to wild type); higher = more cleavage; co-transcriptional.
Take G14A U46A: the self-cleavage was 0.85.
The value for A15U C29U was 0.151; that for G14U G19C was 0.15.
For G14U G19U, the self-cleavage amounted to 0.17.
Turning to A15U A60U, the self-cleavage was found to be 0.325.
To G14C C57G belongs 0.203.
In the case of G14C A40U, the self-cleavage is 0.199.
To G14U U69G belongs 0.94; to G14U U69A, 0.923.
The value for G14U U69C was 1.03.
In the case of G14A A42G, the self-cleavage was determined as 0.372.
To G14A A42U belongs 0.329; to A16C A52G, 0.389; to G14C C32U, 0.716.
To G14A U55A belongs 0.289; to G14U U44G, 0.566; to G14U U44A, 0.553.
The value for A15U A16G was 0.56; that for G14C C66G was 0.447; that for G14C C18U was 0.155.
As to G14C C18A, the self-cleavage worked out at 0.149.
Turning to G14C G65U, the self-cleavage is 0.242.
To A15U U38C belongs 0.613; to G14A U64A, 0.444; to A15G G50U, 0.995.
The value for A15G G50C was 0.956; that for A15G C32G was 0.415.
The value for G14C A59G was 0.62; that for G14A A40U was 0.21; that for G14C G17U was 0.138.
Regarding G14C C34U, the self-cleavage stood at 0.653.
Consider G14A C24G, for which the self-cleavage turned out to be 0.148.
To G14C G58U belongs 0.817; to G14C G58C, 0.497.
The value for G14A U61C was 0.246; that for G14A U61G was 0.414.
The value for A15U C39U was 0.583; that for G14C C63G was 0.971.
Turning to G14C C54A, the self-cleavage was 0.264.
To A15U C27U belongs 0.153; to G14C U49C, 0.55; to G14A A59C, 0.343.
To A15G C29U belongs 0.358.
On to A15C C45G, for which the self-cleavage is 0.865.
As to A15C C45A, the self-cleavage was found to be 0.772.
Regarding A15C C45U, the self-cleavage was 0.949.
The value for G14U C39A was 0.223.
On to A15G G31U, for which the self-cleavage is 0.558.
The value for G14A G41U was 0.264; that for G14A G41C was 0.179.
For the variant G14C U43C, the self-cleavage was determined as 0.399.
The value for G14C U43A was 0.204; that for A15U A40U was 0.288.
To G14A G65A belongs 0.258.
For the variant A16C C18U, the self-cleavage turned out to be 0.128.
As to A15C C22A, the self-cleavage amounted to 0.148.
To A15C C22G belongs 0.0813; to G14U A40C, 0.17.
Take G14C U20G: the self-cleavage was 0.151.
To A15C C39A belongs 0.359; to A15G U21C, 0.847; to A15U G56U, 0.517.
As to G14U C32G, the self-cleavage came out at 0.237.
Consider A15G A60U, for which the self-cleavage worked out at 0.579.
To G14U G68C belongs 0.779; to G14U G68A, 0.908.
The value for G14U U26C was 0.478.
The value for A15C A52U was 0.816.
In the case of A15C A52C, the self-cleavage was determined as 0.748.
The value for A15C U55G was 0.32.
As for G14U U21G, the self-cleavage came to 0.147.
As to A15U A52G, the self-cleavage came out at 0.939.
To G14A C35A belongs 0.202; to G14A C35G, 0.236.
To A15U U61A belongs 0.931; to A15G A16C, 0.145; to A15U U21A, 0.841.
The value for A15C C35U was 0.686.
Turning to A13U U55C, the self-cleavage is 0.403.
The value for A16C C22U was 0.0688; that for A15C U69A was 0.962; that for A15C U69G was 1.02.
The value for A16C A42G was 0.24; that for G14U C24A was 0.249; that for G14U G48U was 0.855.
The value for G14U G48C was 0.907.
For G14U A60U, the self-cleavage worked out at 0.331.
Take G14U A60C: the self-cleavage amounted to 0.269.
Regarding G14U G56A, the self-cleavage was determined as 0.539.
Regarding G14U A42G, the self-cleavage stood at 0.404.
In the case of G14A G19U, the self-cleavage was determined as 0.091.
In the case of G14U G28A, the self-cleavage was 0.213.
To G14U G28C belongs 0.159.
To A15C A23U belongs 0.917.
The value for A15C A23C was 0.835; that for A15C A23G was 0.659; that for G14A C33G was 0.414.
Take G14A C33U: the self-cleavage was 0.747.
The value for A15C C34U was 0.909; that for A15C C34G was 0.131.
On to A15G A42U, for which the self-cleavage worked out at 0.946.
To A15G A59C belongs 0.649; to A15C G31U, 0.241.
To G14U G58U belongs 0.893; to G14C G56A, 0.31.
The value for G14U U43A was 0.321.
As for A13U U49A, the self-cleavage worked out at 0.91.
The value for A13U U49G was 0.901; that for G14U C66U was 0.436; that for G14C U69A was 0.769.
To G14U C27A belongs 0.172; to G14U C27G, 0.154; to A15U G25C, 0.165.
To A15U G25A belongs 0.121; to G14C A15G, 0.725.
Consider G14C A15U, for which the self-cleavage was 0.179.
The value for G14A U21A was 0.646; that for G14A U21C was 0.413.
To G14A U21G belongs 0.121; to A15C U46G, 0.929.
To G14A U69C belongs 1; to G14A U69A, 0.875.
Consider G14A U69G, for which the self-cleavage was determined as 0.934.
The value for A15G C39G was 0.928.
A15G C39U: the self-cleavage turned out to be 0.893.
Take A15G G65A: the self-cleavage was 0.82.
To G14A A23U belongs 0.875; to G14A A51G, 0.81.
In the case of G14A U26G, the self-cleavage was 0.401.
To G14A U26C belongs 0.432.
For the variant G14C C24G, the self-cleavage is 0.131.
Consider G14C C24A, for which the self-cleavage came out at 0.136.
On to G14A G30U, for which the self-cleavage came to 0.21.
The value for G14A G30C was 0.281; that for A15G U43G was 0.779.
The value for A15G U43A was 0.851; that for A15G U46G was 0.974; that for A15G U46A was 1.04.
To A15U A51U belongs 0.851; to A15C U53C, 0.451.
As to A15C U53G, the self-cleavage turned out to be 0.558.
The value for G14U U67A was 0.733; that for G14A G28U was 0.112; that for G14A G28A was 0.147.
To G14C A60U belongs 0.249.
Turning to G14C A60C, the self-cleavage amounted to 0.21.
For A15G G58A, the self-cleavage was 0.964.
The value for A15C G58U was 0.936; that for G14A C63G was 0.73; that for G14A C63U was 0.98.
To A15C U49A belongs 0.889; to A15U C45U, 0.858; to A15U C45A, 0.795.
To A15G G68U belongs 1.01.
G14C G19U: the self-cleavage is 0.156.
To G14C G19C belongs 0.126; to A15U A42G, 0.68.
To G14A C27G belongs 0.116; to A15C C63A, 0.921.
On to A15C C63U, for which the self-cleavage amounted to 0.937.
As to A15U G68U, the self-cleavage worked out at 0.967.
Take A15U G68A: the self-cleavage was 0.937.
The value for A15G A52U was 0.959; that for A15G A52G was 1.03; that for G14C U44C was 0.189.
To A15U U69C belongs 1.03.
The value for A15U U69A was 0.961.
